Twelve molecules from patent US12473560 (FLAGSHIP PIONEERING INNOVATIONS VI, dated 2025) can be followed below.

The target of experiment [1] is T1, SARS-CoV-2 Spike protein receptor-binding domain (RBD) (SARS-CoV-2, UniProt P0DTC2 319-527). The experiment can be described thus: BLI (Octet), IgG1 captured on anti-human Fc sensors, RBD in solution. On Req: test concentration or dose not given here. On Response: test concentration or dose not given here. On kobs: test concentration or dose not given here. Background: BLI is a label-free optical method that tracks binding on a fibre tip over time.
In experiment [2] the target is T1, SARS-CoV-2 Spike protein ….
For experiment [3], the target named is SARS-CoV-2 Spike as carried on rVSV-SARS-CoV-2 pseudovirus and authentic WT virus (SARS-CoV-2, UniProt P0DTC2 14-1273). Kind of experiment: cell-based or functional assay.
The target of experiment [4] is T1, SARS-CoV-2 Spike protein …. The experiment can be described thus: BLI (Octet), IgG captured on anti-human Fc sensors, RBD in solution.
For experiment [5], the target named is T1, SARS-CoV-2 Spike protein …. The experiment can be described thus: BLI (Octet Red96e), IgG captured on anti-human Fc sensors, RBD in solution.

As usually defined, the Kd is the equilibrium constant for the complex coming apart. Lower therefore signals tighter binding. What is called koff is the first-order rate constant of dissociation. Lower therefore signals a long-lived complex. By kon is commonly meant the rate constant with which the complex forms. A low value points to slow association.

Where two headings read alike, the source gives them in different places.

B1: AB-10 full-length IgG1 (humanized) (antibody, V domains shown)
VH: QVQLVQSGAEVKKPGASVKVSCKASGYTFTSYWMHWVRQAPGQGLEWMGAIYPGNGDTNYAQKFQGRVTMTADTSISTAYMELSRLRSDDTAVYYCTREGIPQLLNTLDVWGQGTLVTVSS
VL: DIQMTQSPSSLSASVGDRVTITCRASQEISGYLNWYQQKPGKAPKRLIYAASSLQSGVPSRFSGSGSGTDFTLTISSLQPEDFATYYCQQYLSYPWTFGQGTKVEIK
In experiment [1], B1 yielded an equilibrium dissociation constant (Kd) of 25.4 nM, a Req of 0.102 nm shift, a Response of 0.114 nm shift and a kobs of 0.0151 s⁻¹. In experiment [1], this molecule came in with a koff of 0.00306 s⁻¹ and a kon of 121000 M⁻¹ s⁻¹.

B2: AB-12 full-length IgG1 (humanized) (antibody, V domains shown)
VH: EVQLVQSGAEVKKPGESLKISCKASGYTFTTYWMHWVRQMPGKGLEWMGAIYPGNSDTRYSPSFQGQVTLSVDKSITTAYLQWNSLKASDTAMYFCTREGIPQLLRTLDYWGQGTLVTVSS
VL: DIQMTQSPSSLSASVGDRVTITCRASQGISGYLSWLQQKPEKAPKRLIYAASTLQSGVPSRFSGSGSGTDFTLTISSLQPEDFATYYCQQYLSYPWTFGQGTKLEIK
In experiment [1], B2 returned a Kd of 32.4 nM, a Req of 0.135 nm shift, a Response of 0.145 nm shift and a kobs of 0.0149 s⁻¹. In experiment [1], the koff was found to be 0.00366 s⁻¹ and the on-rate constant (kon) turned out to be 113000 M⁻¹ s⁻¹.

B3: AB-11 full-length IgG1 (humanized) (antibody, V domains shown)
VH: EVQLVQSGAEVKKSGESLKISCKASGYTFTTYWMHWVRQMPGKGLEWMGAIYPGNSDTQYSPSFQGQVTLSADKSISTAYLQWSSLKASDTAMYFCTREGIPQLLRTLDYWGQGTLVTVSS
VL: EIVLTQSPGTLSLSPGERATLSCRASQEISGYLAWLQQKPGQAPRRLIYAASSLATGIPDRFSGSGSGTDFTLTISRLEPEDFAVYYCLQYLSYPWTFGQGTKVEIK
As for B3, in experiment [1], binding was put at a Kd of 32.7 nM, the Req is 0.326 nm shift, the Response came out at 0.319 nm shift and the kobs was 0.0104 s⁻¹. In experiment [1], this molecule showed an off-rate constant (koff) of 0.00255 s⁻¹ and a kon of 78000 M⁻¹ s⁻¹.

B4: AB-1 full-length IgG1 (antibody, V domains shown)
VH: EVQLEESGTVLARPGASVKMSCKASGYTFTTYWMHWIKQRPGQGLEWIGAIYPGNSDTQYNQKFKDKAKLTAVKSTSSAYMELSSLTNEDSAVYFCTREGIPQLLRTLDYWGQGTSVTVSS
VL: DILMTQSPSSLSASLGERVSLTCRASQEISGYLSWLQEKPDGTIKRLIYAASTLDSGVPKRFSGSRSGSDYSLTISSLESEDFADYYCLQYLSYPWTFGGGTKLEIK
B4: the Kd in experiment [2] worked out at 34.2 nM. In addition, in experiment [3], the “Neutralization (ng/mL), Authentic Virus IC50” value is 78 ng/mL; the “Neutralization (ng/mL), Authentic Virus IC80” value was 543 ng/mL; the “Neutralization (ng/mL), Pseudovirus IC50” value came to 0.0782 ng/mL; the “Neutralization (ng/mL), Pseudovirus IC80” value was found to be 2.6 ng/mL. Also, the “Neutralization (ng/mL), Pseudovirus IC90” value in experiment [3] came to 9.56 ng/mL. The dissociation constant (Kd) in experiment [4] worked out at 39 nM. Further, in experiment [1], binding was characterised by a dissociation constant (Kd) of 15.9 nM, the Req came to 0.388 nm shift, the Response is 0.364 nm shift and the kobs was determined as 0.00924 s⁻¹. In experiment [1], this molecule had a koff of 0.00127 s⁻¹ and a kon of 79700 M⁻¹ s⁻¹. In experiment [5], the Kd is 39 nM, the koff is 0.0024 s⁻¹ and the kon is 62000 M⁻¹ s⁻¹.

B5: AB-2 full-length IgG1 (antibody, V domains shown)
VH: EVQLEESGTVLARPGASVKMSCKASGYTFTTYWMHWIKQRPGQGLEWIGAIYPGNGDTNYNQKFKDKAKLTAVKSTSSAYMELSSLTNEDSAVYFCTREGIPQLLRTLDYWGQGTSVTVSS
VL: DILMTQSPSSLSASLGERVSLTCRASQEISGYLSWLQEKPDGTIKRLIYAASTLDSGVPKRFSGSRSGSDYSLTISSLESEDFADYYCLQYLSYPWTFGGGTKLEIK
In experiment [2], B5 had a Kd of 127 nM. For the same molecule, in experiment [3], the “Neutralization (ng/mL), Authentic Virus IC50” value was found to be 379 ng/mL; the “Neutralization (ng/mL), Authentic Virus IC80” value turned out to be 3030 ng/mL; the “Neutralization (ng/mL), Pseudovirus IC50” value was 9.65 ng/mL; the “Neutralization (ng/mL), Pseudovirus IC80” value was determined as 35.2 ng/mL. Also, the “Neutralization (ng/mL), Pseudovirus IC90” value in experiment [3] is 760 ng/mL.

B6: AB-6 full-length IgG1 (antibody, V domains shown)
VH: EVQLEESGTVLARPGASVKMSCKASGYTFTSYWMHWIKQRPGQGLEWIGAIYPGNSDTNYNQKFKDKAKLTAVKSTSSAYMELSSLTNEDSAVYFCTREGIPQLTRTLDYWGQGTSVTVSS
VL: DILMTQSPSSLSASLGERVSLTCRASQEISGYLSWLQEKPDGTIKRLIYAASTLDSGVPKRFSGSRSGSDYSLTISSLESEDFADYYCLQYLSYPWTFGGGTKLEIK
Molecule B6 registered an equilibrium dissociation constant (Kd) in experiment [2] of 103 nM. For the same molecule, in experiment [3], the “Neutralization (ng/mL), Authentic Virus IC50” value is 25000 ng/mL; the “Neutralization (ng/mL), Authentic Virus IC80” value was determined as 25000 ng/mL; the “Neutralization (ng/mL), Pseudovirus IC50” value came out at 6.15 ng/mL; the “Neutralization (ng/mL), Pseudovirus IC80” value came to 27.2 ng/mL. Moreover, in experiment [3], the “Neutralization (ng/mL), Pseudovirus IC90” value is 58.4 ng/mL.

B7: AB-3 full-length IgG1 (antibody, V domains shown)
VH: EVQLEESGTVLARPGASVKMSCKASGYTFTTYWMHWIKQRPGQGLEWIGAIYPGNGDTNYNQKFKDKAKLTAVKSTSSAYMELSSLTNEDSAVYFCTREGIPQKLRTLDVWGQGTSVTVSS
VL: DILMTQSPSSLSASLGERVSLTCRASQEISGYLSWLQEKPDGTIKRLIYAASTLDSGVPKRFSGSRSGSDYSLTISSLESEDFADYYCLQYLSYPWTFGGGTKLEIK
On to B7, for which the dissociation constant Kd in experiment [2] was 177 nM. Also, in experiment [3], the “Neutralization (ng/mL), Authentic Virus IC50” value worked out at 3550 ng/mL; the “Neutralization (ng/mL), Authentic Virus IC80” value was 11100 ng/mL; the “Neutralization (ng/mL), Pseudovirus IC50” value came out at 17.6 ng/mL; the “Neutralization (ng/mL), Pseudovirus IC80” value came to 110 ng/mL. The “Neutralization (ng/mL), Pseudovirus IC90” value in experiment [3] stood at 502 ng/mL.

B8: AB-4 full-length IgG1 (antibody, V domains shown)
VH: EVQLEESGTVLARPGASVKMSCKASGYTFTTYWMHWIKQRPGQGLEWIGAIYPGNGDTNYNQKFKDKAKLTAVKSTSSAYMELSSLTNEDSAVYFCTREGIPQLLRTFDYWGQGTSVTVSS
VL: DILMTQSPSSLSASLGERVSLTCRASQEIGGYLSWLQEKPDGTIKRLIYAASTLDSGVPKRFSGSRSGSDYSLTISSLESEDFADYYCLQYLSYPWTFGGGTKLEIK
On to B8, for which the Kd in experiment [2] is 151 nM.

B9: AB-7 full-length IgG1 (antibody, V domains shown)
VH: EVQLEESGTVLARPGASVKMSCKASGYTFTSYWMHWIKQRPGQGLEWIGAIYPGNSDTNYNQKFKDKAKLTAVKSTSSAYMELSSLTNEDSAVYFCTREGIPQLLRSLDYWGQGTSVTVSS
VL: DILMTQSPSSLSASLGERVSLTCRASQEISGYLSWLQEKPDGTIKRLIYAASTLDSGVPKRFSGSRSGSDYSLTISSLESEDFADYYCLQYLSYPWTFGGGTKLEIK
The molecule B9 returned a dissociation constant (Kd) in experiment [2] of 386 nM. Also, the “Neutralization (ng/mL), Pseudovirus IC50” value in experiment [3] was 24.6 ng/mL.

B10: AB-5 full-length IgG1 (antibody, V domains shown)
VH: EVQLEESGTVLARPGASVKMSCKASGYTFTSYWMHWIKQRPGQGLEWIGAIYPGNGDTNYNQKFKDKAKLTAVKSTSSAYMELSSLTNEDSAVYFCTREGIPQLLNTLDVWGQGTSVTVSS
VL: DILMTQSPSSLSASLGERVSLTCRASQEISGYLSWLQEKPDGTIKRLIYAASTLDSGVPKRFSGSRSGSDYSLTISSLESEDFADYYCQQYLSYPWTFGGGTKLEIK
B10 had a Kd in experiment [2] of 148 nM. In experiment [3], the “Neutralization (ng/mL), Authentic Virus IC50” value was determined as 260 ng/mL; the “Neutralization (ng/mL), Authentic Virus IC80” value came out at 2460 ng/mL; the “Neutralization (ng/mL), Pseudovirus IC50” value is 8.25 ng/mL; the “Neutralization (ng/mL), Pseudovirus IC80” value was 35.2 ng/mL. The “Neutralization (ng/mL), Pseudovirus IC90” value in experiment [3] is 71.1 ng/mL. In addition, in experiment [1], binding was put at a Kd of 41.3 nM, the Req was determined as 0.318 nm shift, the Response came to 0.315 nm shift and the kobs came to 0.0117 s⁻¹. In experiment [1], this molecule came in with a koff of 0.00341 s⁻¹ and a kon of 82500 M⁻¹ s⁻¹.

B11: AB-8 full-length IgG1 (antibody, V domains shown)
VH: EVQLEESGTVLARPGASVKMSCKASGYTFTTYWMHWIKQRPGQGLEWIGAIYPGNSDTIYNQKFKDKAKLTAVKSTSSAYMELSSLTNEDSAVYFCTREGIPQLLRTLDYWGQGTSVTVSS
VL: DILMTQSPSSLSASLGERVSLTCRASQEISGYLSWLQEKPDGTIKRLIYAASTLDSGVPKRFSGSRSGSDYSLTISSLESEDFADYYCLQYLSYPWTFGGGTKLEIK
Take B11: the Kd in experiment [2] was 104 nM. Moreover, in experiment [3], the “Neutralization (ng/mL), Authentic Virus IC50” value stood at 222 ng/mL; the “Neutralization (ng/mL), Authentic Virus IC80” value stood at 1600 ng/mL; the “Neutralization (ng/mL), Pseudovirus IC50” value turned out to be 0.792 ng/mL; the “Neutralization (ng/mL), Pseudovirus IC80” value stood at 3.34 ng/mL. The “Neutralization (ng/mL), Pseudovirus IC90” value in experiment [3] was found to be 7.6 ng/mL.

B12: AB-9 full-length IgG1 (antibody, V domains shown)
VH: EVQLEESGTVLARPGASVKMSCKASGYTFTSYWMHWIKQRPGQGLEWIGAIYPGNSDTNYNQKFKDKAKLTAVTSTSSAYMELSSLTNEDSAVYFCTREGIPQLLRTLDYWGQGTSVTVSS
VL: DILMTQSPSSLSASLGERVSLTCRASQEISGYLSWLQEKPDGTIKRLIYAASTLDSGVPKRFSGSRSGSDYSLTISSLESEDFADYYCLQYLSYPWTFGGGTKLEIK
With B12, binding in experiment [2] was put at a Kd of 98.8 nM. Further, in experiment [3], the “Neutralization (ng/mL), Authentic Virus IC50” value amounted to 100 ng/mL; the “Neutralization (ng/mL), Authentic Virus IC80” value was 627 ng/mL; the “Neutralization (ng/mL), Pseudovirus IC50” value was found to be 0.824 ng/mL; the “Neutralization (ng/mL), Pseudovirus IC80” value worked out at 4.14 ng/mL. In experiment [3], the “Neutralization (ng/mL), Pseudovirus IC90” value is 9.95 ng/mL.
